Results on five substances are retold here after US20220112268A1.

The term pEC50 denotes the negative decadic logarithm of the EC50, by convention in mol/L.

Test [1] deals with PD-1 on PD-1-positive cells (EL4 cells) (UniProt Q02242). In words: direct binding of Alexa Fluor 647-labeled sample to EL4 cells, flow cytometry, fraction of positive cells. In general terms: In flow cytometry, cells or beads pass a laser one at a time.
The target is the same in test [2]. In words: inhibition of PD-L1-human Fc (10 µg/mL) binding to EL4 cells, flow cytometry, competitor PD-L1-human Fc.
For test [3] the target is unchanged. In words: inhibition of PD-L1-human Fc binding to EL4 cells; reference intact αPD-1.
For test [4], the target named is T cell receptor of OT-I T cells (cognate to the SIINFEKL tetramer), on OT-I T cells. The experiment in a line: labeled NP incubated with an OT-I/OT-II T cell mixture (1:1); reference free αPD-1 (FIG. 7B).
Test [5] has as its target PD-1 on PD-1-positive cells (EL4 cells) (UniProt Q02242). The experiment in a line: direct binding to EL4 cells, flow cytometry; reference intact αPD-1.
The target is the same in test [6]. The experiment in a line: inhibition of PD-L1-human Fc binding to EL4 cells; reference soluble αPD-1-iTEP fusion.

pEC50: −log10 of the molar value.

Chain of UniProt Q02242 (Q02242 25-288 limits assumed): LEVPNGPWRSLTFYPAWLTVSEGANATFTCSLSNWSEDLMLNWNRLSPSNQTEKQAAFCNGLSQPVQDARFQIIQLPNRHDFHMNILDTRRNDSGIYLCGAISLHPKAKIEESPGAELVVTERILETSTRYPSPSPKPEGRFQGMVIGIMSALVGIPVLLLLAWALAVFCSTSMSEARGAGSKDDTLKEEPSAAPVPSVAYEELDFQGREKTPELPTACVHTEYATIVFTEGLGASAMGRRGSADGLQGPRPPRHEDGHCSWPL

For “αPD-1 scFv (recombinant single-chain variable fragment of the anti-PD-1 antibody clone RMP1-14), NH2-Histag(H6)-(GGGSG)3-VH-(GGGSG)4-VL-COOH”, the results for the pEC50 in test [1] and in test [2] were 6.49 and 5.38, respectively. Also, in test [3], the fold lower inhibition capacity than intact αPD-1 was 3 fold.

In the case of “intact αPD-1 (anti-programmed death-1 antibody, RMP1-14 clone, IgG from hybridoma ascites)”, the figures for the pEC50 in test [1] and in test [2] were 6.96 and 5.88, respectively.

Consider “SIINFEKL tetramer-guided αPD-1 NP, nanoparticle assembled from iTEP-αPD-1 and iTEP-tetramer (H2-Kb/SIINFEKL) mixed at a 1-to-10 ratio (from UniProt P22629 37-163; P01901 22-305)”, for which, in test [4], the targeting efficiency (OT-I:OT-II ratio of guided NPs divided by the OT-I:OT-II ratio of free αPD-1) amounted to 37.3.

As to “soluble αPD-1-iTEP fusion, αPD-1(scFv) fused to the amphiphilic diblock iTEP (GAGVPG)70-(GVLPGVG)56-(GC)4”, the values for the pEC50 in test [1] and in test [2] were 6.40 and 5.34, respectively. In test [3], this substance displayed a fold lower inhibition capacity than intact αPD-1 of 3 fold.

As for “αPD-1 NP, the nanoparticle form of the αPD-1-iTEP fusion, self-assembled and crosslinked by disulfide bonds”, the pEC50 in test [1] was 7.41. Also, the negative logarithm of the EC50 (pEC50) in test [2] was 5.92. In addition, in test [5], the fold smaller EC50 than intact αPD-1 worked out at 3 fold and the fold stronger avidity than intact αPD-1 was found to be 4 fold. Besides, the fold higher inhibition capacity than the soluble αPD-1-iTEP fusion in test [6] worked out at 3 fold.
